{
  "source": "patent US20210032664",
  "about": "“ENGINEERED MEGANUCLEASES WITH RECOGNITION SEQUENCES FOUND IN THE HUMAN BETA-2 MICROGLOBULIN GENE” (Precision Biosciences, Inc., published 2021)",
  "experiment_in_all_cases": "cell_activity; human T cells, 1 ug mRNA, day 3",
  "conditions_in_all_cases": "tags: N-terminal SV40 NLS",
  "key": {"B2M 13-14x.283": {"target": "T1, B2M 13-14x.283 (Artificial Sequence)", "T1 chain": "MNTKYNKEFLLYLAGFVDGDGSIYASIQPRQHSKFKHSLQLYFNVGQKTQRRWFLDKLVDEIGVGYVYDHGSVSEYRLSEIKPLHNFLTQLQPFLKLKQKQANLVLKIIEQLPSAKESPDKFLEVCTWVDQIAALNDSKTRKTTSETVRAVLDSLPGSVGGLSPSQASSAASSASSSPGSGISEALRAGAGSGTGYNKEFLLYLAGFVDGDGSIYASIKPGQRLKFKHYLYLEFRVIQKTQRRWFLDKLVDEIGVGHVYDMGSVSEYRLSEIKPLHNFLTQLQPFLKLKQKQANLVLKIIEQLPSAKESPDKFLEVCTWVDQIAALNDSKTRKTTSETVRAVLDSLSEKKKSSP", "experimental": "(§1) Donor human T cells were stimulated with anti-CD3 and anti-CD28 antibodies for 3 days, then electroporated with mRNA encoding a given B2M 13-14 meganuclease (1 μg) using the Amaxa 4D-Nucleofector (Lonza) according to the manufacturer's instructions. To look for the loss of B2M surface expression, cells were stained with an antibody recognizing β-2 microglobulin (BD Biosciences) as well as an antibody recognizing CD3 (BioLegend), a marker of T cells."}, "B2M 13-14x.377": {"target": "T2, B2M 13-14x.377 (Artificial Sequence)", "T2 chain": "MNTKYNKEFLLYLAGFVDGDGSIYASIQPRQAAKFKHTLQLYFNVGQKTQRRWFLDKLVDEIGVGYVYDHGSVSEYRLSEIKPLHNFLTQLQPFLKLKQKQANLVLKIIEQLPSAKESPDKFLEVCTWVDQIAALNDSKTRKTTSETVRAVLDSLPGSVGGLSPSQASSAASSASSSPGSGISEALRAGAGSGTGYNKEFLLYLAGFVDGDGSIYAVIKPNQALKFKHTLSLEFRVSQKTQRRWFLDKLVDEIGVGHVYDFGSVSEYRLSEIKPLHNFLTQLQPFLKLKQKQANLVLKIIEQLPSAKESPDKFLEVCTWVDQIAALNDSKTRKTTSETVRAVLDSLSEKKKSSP", "experimental": "as §1"}, "B2M 13-14x.551": {"target": "T3, B2M 13-14x.551 (Artificial Sequence)", "T3 chain": "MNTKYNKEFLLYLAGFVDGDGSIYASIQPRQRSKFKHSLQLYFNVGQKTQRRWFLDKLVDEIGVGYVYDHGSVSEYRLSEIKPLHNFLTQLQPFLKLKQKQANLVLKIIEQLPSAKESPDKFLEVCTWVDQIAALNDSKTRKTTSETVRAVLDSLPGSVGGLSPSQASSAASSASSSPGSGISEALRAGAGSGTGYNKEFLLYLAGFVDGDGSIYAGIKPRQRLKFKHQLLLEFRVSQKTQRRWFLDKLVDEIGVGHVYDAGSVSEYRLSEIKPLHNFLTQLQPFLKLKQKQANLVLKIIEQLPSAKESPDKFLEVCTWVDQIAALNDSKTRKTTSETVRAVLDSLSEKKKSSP", "experimental": "as §1"}, "B2M 13-14x.317": {"target": "T4, B2M 13-14x.317 (Artificial Sequence)", "T4 chain": "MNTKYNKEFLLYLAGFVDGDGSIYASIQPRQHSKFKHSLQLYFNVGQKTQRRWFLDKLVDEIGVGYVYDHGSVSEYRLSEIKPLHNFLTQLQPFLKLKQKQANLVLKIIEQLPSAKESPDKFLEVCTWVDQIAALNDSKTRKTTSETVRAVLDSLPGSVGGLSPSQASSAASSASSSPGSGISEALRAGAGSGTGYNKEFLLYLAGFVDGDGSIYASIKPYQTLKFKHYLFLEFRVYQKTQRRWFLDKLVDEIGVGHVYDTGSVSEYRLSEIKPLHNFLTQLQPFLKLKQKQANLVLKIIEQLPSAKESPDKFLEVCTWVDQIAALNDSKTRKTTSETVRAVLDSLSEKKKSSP", "experimental": "as §1"}, "B2M 13-14x.338": {"target": "T5, B2M 13-14x.338 (Artificial Sequence)", "T5 chain": "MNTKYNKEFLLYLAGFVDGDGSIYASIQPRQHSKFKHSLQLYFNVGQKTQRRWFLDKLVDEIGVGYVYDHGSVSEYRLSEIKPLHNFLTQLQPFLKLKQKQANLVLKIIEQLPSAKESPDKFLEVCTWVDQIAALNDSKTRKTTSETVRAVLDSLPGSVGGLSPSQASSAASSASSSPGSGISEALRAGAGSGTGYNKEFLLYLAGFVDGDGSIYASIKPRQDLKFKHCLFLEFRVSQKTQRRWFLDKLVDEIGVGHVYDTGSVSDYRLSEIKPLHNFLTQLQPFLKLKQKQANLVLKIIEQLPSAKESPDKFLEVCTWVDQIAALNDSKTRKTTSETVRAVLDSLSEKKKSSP", "experimental": "as §1"}, "B2M 13-14x.362": {"target": "T6, B2M 13-14x.362 (Artificial Sequence)", "T6 chain": "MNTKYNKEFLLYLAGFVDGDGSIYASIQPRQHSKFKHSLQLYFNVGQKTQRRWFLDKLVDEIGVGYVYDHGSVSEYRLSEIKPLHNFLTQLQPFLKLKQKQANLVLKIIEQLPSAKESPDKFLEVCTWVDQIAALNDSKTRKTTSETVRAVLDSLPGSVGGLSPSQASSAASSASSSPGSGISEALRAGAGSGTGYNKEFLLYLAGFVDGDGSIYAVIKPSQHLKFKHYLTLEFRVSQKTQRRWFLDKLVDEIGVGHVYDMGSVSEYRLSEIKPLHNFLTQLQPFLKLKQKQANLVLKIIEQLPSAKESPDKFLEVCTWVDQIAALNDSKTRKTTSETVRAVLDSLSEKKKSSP", "experimental": "as §1"}, "B2M 13-14x.464": {"target": "T7, B2M 13-14x.464 (Artificial Sequence)", "T7 chain": "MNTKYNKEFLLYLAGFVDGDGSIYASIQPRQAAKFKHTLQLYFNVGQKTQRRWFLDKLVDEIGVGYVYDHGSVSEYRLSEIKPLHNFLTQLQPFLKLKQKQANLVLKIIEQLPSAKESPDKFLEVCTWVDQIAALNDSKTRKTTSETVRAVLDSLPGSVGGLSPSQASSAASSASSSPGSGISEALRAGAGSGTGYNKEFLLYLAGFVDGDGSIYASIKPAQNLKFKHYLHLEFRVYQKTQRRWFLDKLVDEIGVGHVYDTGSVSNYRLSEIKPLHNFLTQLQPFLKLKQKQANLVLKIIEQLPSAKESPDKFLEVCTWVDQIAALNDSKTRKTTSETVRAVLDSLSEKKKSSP", "experimental": "as §1"}},
  "data": [
    {"binder": "B2M 13-14 recognition sequence (dsDNA) DNA 1: CTATCTCTTGTACTACACTGAA DNA 2: TTCAGTGTAGTACAAGAGATAG", "values": [
      {"measurement": "activity", "setting": "B2M 13-14x.283", "result": 49.3, "unit": "% B2M-negative"},
      {"measurement": "activity", "setting": "B2M 13-14x.377", "result": 75.9, "unit": "% B2M-negative"},
      {"measurement": "activity", "setting": "B2M 13-14x.551", "result": 40.3, "unit": "% B2M-negative"},
      {"measurement": "activity", "setting": "B2M 13-14x.317", "result": 3.91, "unit": "% B2M-negative"},
      {"measurement": "activity", "setting": "B2M 13-14x.338", "result": 4.68, "unit": "% B2M-negative"},
      {"measurement": "activity", "setting": "B2M 13-14x.362", "result": 37.8, "unit": "% B2M-negative"},
      {"measurement": "activity", "setting": "B2M 13-14x.464", "result": 8.24, "unit": "% B2M-negative"}
    ]}
  ]
}
